Laboratory results as given in patent US20230174659A1 (GENERAL HOSPITAL, published 2023).

Columns and labels:
[1] = target: T1, Amino acid residues 26-45 of human TNFR2 (human); assay: ELISA on TNFR2 peptide, antibody alone
T1 sequence (peptide): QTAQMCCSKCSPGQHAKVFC

[2] = target: T2, Amino acid residues 34-53 of human TNFR2 (human); assay: ELISA on TNFR2 peptide, antibody alone
T2 sequence (peptide): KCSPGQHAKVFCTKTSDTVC

[3] = target: T3, Amino acid residues 98-117 of human TNFR2 (human); assay: ELISA on TNFR2 peptide, antibody alone
T3 sequence (peptide): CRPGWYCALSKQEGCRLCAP

[4] = target: T1, Amino acid residues 26-45 of human TNFR2 (human); assay: ELISA on plate-coated linear peptide S03933
[5] = target: T4, Amino acid residues 108-127 of human TNFR2 (human); assay: ELISA on plate-coated linear peptide S03935
T4 sequence (peptide): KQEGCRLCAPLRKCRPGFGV

[6] = target: T3, Amino acid residues 98-117 of human TNFR2 (human); assay: ELISA on plate-coated linear peptide S04072
[7] = target: T5, Amino acid residues 106-125 of human TNFR2 (human); assay: ELISA on plate-coated linear peptide S04073
T5 sequence (peptide): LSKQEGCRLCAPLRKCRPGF

[8] = target: T6, Amino acid residues 58-77 of human TNFR2 (human); assay: ELISA on TNFR2 peptide, antibody alone
T6 peptide: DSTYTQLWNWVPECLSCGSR
Method: (§1) ELISA was also used to determine linear epitopes present on the extracellular surface of TNFR2. Linear peptides corresponding to various regions within the TNFR2 primary sequence were purchased from GenScript (Piscataway, NJ), diluted in coating buffer and placed on Immulon 4HBX Flat Bottom Microtiter Plates (Thermo Scientific) at a concentration of 1 µg/well. Primary TNFR2 agonistic antibodies (0.1 µg/well) were incubated with substrates. Secondary antibodies against rodent IgG were used to detect the primary antibodies. Absorbance was measured using the SPECTRAMAX^{®} 190 Absorbance Plate Reader and analyzed with SoftMax Pro 6.3 (Molecular Devices).

[9] = target: T7, Amino acid residues 170-189 of human TNFR2 (human); assay: ELISA on TNFR2 peptide, antibody alone
T7 peptide: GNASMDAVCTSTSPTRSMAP
Method: as §1

[10] = target: T8, Amino acid residues 9-28 of human TNFR2 (human); assay: ELISA on TNFR2 peptide, antibody alone
T8 peptide: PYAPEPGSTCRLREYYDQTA
Method: as §1

[11] = target: T9, Amino acid residues 17-36 of human TNFR2 (human); assay: ELISA on TNFR2 peptide, antibody alone
T9 peptide: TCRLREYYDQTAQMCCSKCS
Method: as §1

[12] = target: T10, Amino acid residues 42-61 of human TNFR2 (human); assay: ELISA on TNFR2 peptide, antibody alone
T10 peptide: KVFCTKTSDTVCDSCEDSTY
Method: as §1

[13] = target: T11, Amino acid residues 50-69 of human TNFR2 (human); assay: ELISA on TNFR2 peptide, antibody alone
T11 peptide: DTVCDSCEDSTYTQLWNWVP
Method: as §1

[14] = target: T12, Amino acid residues 1-20 of human TNFR2 (human); assay: ELISA on plate-coated linear peptide S04062
T12 peptide: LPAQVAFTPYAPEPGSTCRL
Method: as §1

[15] = target: T13, Amino acid residues 114-133 of human TNFR2 (human); assay: ELISA on plate-coated linear peptide S04074
T13 peptide: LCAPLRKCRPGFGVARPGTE
Method: as §1

[16] = target: T14, Amino acid residues 122-141 of human TNFR2 (human); assay: ELISA on plate-coated linear peptide S04075
T14 peptide: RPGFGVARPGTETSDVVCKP
Method: as §1

[17] = target: T15, Amino acid residues 130-149 of human TNFR2 (human); assay: ELISA on plate-coated linear peptide S04076
T15 peptide: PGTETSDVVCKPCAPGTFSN
Method: as §1

[18] = target: T16, Amino acid residues 138-157 of human TNFR2 (human); assay: ELISA on plate-coated linear peptide S04077
T16 peptide: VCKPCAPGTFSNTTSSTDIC
Method: as §1

[19] = target: T17, Amino acid residues 146-165 of human TNFR2 (human); assay: ELISA on plate-coated linear peptide S04078
T17 peptide: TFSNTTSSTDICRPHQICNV
Method: as §1

[20] = target: T18, Amino acid residues 154-174 of human TNFR2 (human); assay: ELISA on plate-coated linear peptide S04079
T18 construct: The printed range 154-174 spans 21 residues, but the printed peptide has 20
T18 peptide: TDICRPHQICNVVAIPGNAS
Method: as §1

[21] = target: T19, Amino acid residues 162-181 of human TNFR2 (human); assay: ELISA on plate-coated linear peptide S04080
T19 peptide: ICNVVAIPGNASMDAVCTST
Method: as §1

[22] = target: T5, Amino acid residues 106-125 of human TNFR2 (human); assay: ELISA, immobilised TNFR2 peptide fragments, TNFRAG1 as primary antibody
[23] = target: T4, Amino acid residues 108-127 of human TNFR2 (human); assay: as above
[24] = target: T1, Amino acid residues 26-45 of human TNFR2 (human); assay: as above
[25] = target: T2, Amino acid residues 34-53 of human TNFR2 (human); assay: as above
[26] = target: T20, Amino acid residues 66-85 of human TNFR2 (human); assay: as above
T20 sequence (peptide): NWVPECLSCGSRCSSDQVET

[27] = target: T21, Amino acid residues 74-93 of human TNFR2 (human); assay: as above
T21 sequence (peptide): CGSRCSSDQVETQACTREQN

[28] = target: T22, Amino acid residues 82-101 of human TNFR2 (human); assay: as above
T22 sequence (peptide): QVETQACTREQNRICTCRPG

[29] = target: T3, Amino acid residues 98-117 of human TNFR2 (human); assay: as above
[30] = target: T5, Amino acid residues 106-125 of human TNFR2 (human); assay: ELISA on TNFR2 peptide, antibody alone; Affinity cell of this row is '-'
[31] = target: T20, Amino acid residues 66-85 of human TNFR2 (human); assay: as above
[32] = target: T21, Amino acid residues 74-93 of human TNFR2 (human); assay: as above
[33] = target: T22, Amino acid residues 82-101 of human TNFR2 (human); assay: as above
[34] = target: T6, Amino acid residues 58-77 of human TNFR2; assay: ELISA, immobilised TNFR2 peptide fragments, TNFRAG1 as primary antibody
Method: (§2) The binding of antibody to each of the synthesized peptides was tested in an ELISA format. Surface-immobilized peptide arrays were incubated with primary antibody solution (overnight at 4° C.). After washing, the peptide arrays were incubated with a 1/1000 dilution of an appropriate antibody peroxidase conjugate (SBA) for one hour at 25° C. After washing, the peroxidase substrate 2,2′-azino-di-3- ethylbenzthiazoline sulfonate (ABTS) and 2 µl/ml of 3 percent H₂O₂ were added. After one hour, the color development was measured. The color development was quantified with a charge coupled device (CCD) - camera and an image processing system. The values obtained from the CCD camera range from 0 to 3000 mAU, similar to a standard 96-well plate ELISA-reader.
(§3) Affinity is reported qualitatively using a categorical four-point scale, such that an affinity score of “0” denotes lowest affinity and an affinity score of “4” denotes highest affinity.

[35] = target: T23, Amino acid residues 90-109 of human TNFR2 (human); assay: as above
T23 peptide: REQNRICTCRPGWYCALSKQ
Method: as §2, §3

[36] = target: T13, Amino acid residues 114-133 of human …; assay: as above
Method: as §2, §3

[37] = target: T14, Amino acid residues 122-141 of human …; assay: as above
Method: as §2, §3

[38] = target: T15, Amino acid residues 130-149 of human …; assay: as above
Method: as §2, §3

[39] = target: T16, Amino acid residues 138-157 of human …; assay: as above
Method: as §2, §3

[40] = target: T17, Amino acid residues 146-165 of human …; assay: as above
Method: as §2, §3

[41] = target: T18, Amino acid residues 154-174 of human …; assay: as above
Method: as §2, §3

[42] = target: T19, Amino acid residues 162-181 of human …; assay: as above
Method: as §2, §3

[43] = target: T7, Amino acid residues 170-189 of human …; assay: as above
Method: as §2, §3

[44] = target: T12, Amino acid residues 1-20 of human TNFR2; assay: as above
Method: as §2, §3

[45] = target: T8, Amino acid residues 9-28 of human TNFR2; assay: as above
Method: as §2, §3

[46] = target: T9, Amino acid residues 17-36 of human TNFR2; assay: as above
Method: as §2, §3

[47] = target: T10, Amino acid residues 42-61 of human TNFR2; assay: as above
Method: as §2, §3

[48] = target: T11, Amino acid residues 50-69 of human TNFR2; assay: as above
Method: as §2, §3

[49] = target: Full-length human TNFR2 (human) (UniProt P20333); assay: ELISA, immobilised human TNFR2 / TNFR2 peptide fragments, TNFRAG1 as primary antibody
[50] = target: T1, Amino acid residues 26-45 of human TNFR2 (human); assay: ELISA on plate-coated linear peptide S03933; Affinity cell of this row is '1+'
[51] = target: T3, Amino acid residues 98-117 of human TNFR2 (human); assay: ELISA on plate-coated linear peptide S04072; Affinity cell of this row is '1+'
[52] = target: T4, Amino acid residues 108-127 of human TNFR2 (human); assay: ELISA on plate-coated linear peptide S03935; Affinity cell of this row is '2+-'
[53] = target: T5, Amino acid residues 106-125 of human TNFR2 (human); assay: ELISA on plate-coated linear peptide S04073; Affinity cell of this row is '2+-'

B1: agonistic TNFR2 antibody TNFRAG1 (antibody, V domains shown)
VH: EVQLQQFGAELVKPGASVKISCKASGYTFTDYNIDWVKQSHGKSLEWIGDINPNYDSTSYSQKFRGKATLTVDKSSSTAYMELRSLTSEDTAVYYCARGNSWYFDVWGAGTTVTVSS
VL: QIVLTQSPALMSASPGEKVTMTCSASSSVRYMYWYQQKPRSSPKPWIYLTSNLASGVPARFSGSGSGTSYSLTISSMEAEDAATYYCQQWSSNPLTFGAGTKLELK
notes: It was detected with secondary antibodies against rodent IgG; also called monoclonal TNFR2 antibody TNFRAG1; TNFR2 agonist antibody
In the case of B1, the Affinity [1] is reported as 1, the Reading [1] is reported as 0.1 and the Affinity [2] is reported as 1. It also gave an Affinity [3] of 1, a Reading [3] of 2 and an Affinity [4] of 1. For the same binder, the Affinity [5] was 2, the Affinity [6] was 1 and the Affinity [7] was 2. B1: no binding [8]; no binding [9]; no binding [10]. B1: no binding [11]; no binding [12]; no binding [13]. B1: no binding [14]; no binding [15]; no binding [16]. B1: no binding [17]; no binding [18]; no binding [19]. For the same binder, the binding result [20] was “no binding”, the binding result [21] was “no binding” and the Affinity Score (affinity score (0 lowest to 4 highest)) [22] was 2. For the same binder, the Affinity Score (affinity score (0 lowest to 4 highest)) [23] was 2, the Affinity Score (affinity score (0 lowest to 4 highest)) [24] was 1 and the Affinity Score (affinity score (0 lowest to 4 highest)) [25] was 0. It also gave an Affinity Score (affinity score (0 lowest to 4 highest)) [26] of 0, an Affinity Score (affinity score (0 lowest to 4 highest)) [27] of 0 and an Affinity Score (affinity score (0 lowest to 4 highest)) [28] of 0. For the same binder, the Affinity Score (affinity score (0 lowest to 4 highest)) [29] was 1, the Reading [30] was 2 and the Reading [31] was 2. The Reading [32] was 2, the Reading [33] was 2 and the “Affinity Score” value [34] was 0 affinity score (0 lowest to 4 highest). The “Affinity Score” value [35] was 2 affinity score (0 lowest to 4 highest), the “Affinity Score” value [36] was 0 affinity score (0 lowest to 4 highest) and the “Affinity Score” value [37] was 0 affinity score (0 lowest to 4 highest). The “Affinity Score” value [38] was 0 affinity score (0 lowest to 4 highest), the “Affinity Score” value [39] was 0 affinity score (0 lowest to 4 highest) and the “Affinity Score” value [40] was 0 affinity score (0 lowest to 4 highest). For the same binder, the “Affinity Score” value [41] was 0 affinity score (0 lowest to 4 highest), the “Affinity Score” value [42] was 0 affinity score (0 lowest to 4 highest) and the “Affinity Score” value [43] was 0 affinity score (0 lowest to 4 highest). The “Affinity Score” value [44] was 0 affinity score (0 lowest to 4 highest), the “Affinity Score” value [45] was 0 affinity score (0 lowest to 4 highest) and the “Affinity Score” value [46] was 0 affinity score (0 lowest to 4 highest). The “Affinity Score” value [47] was 0 affinity score (0 lowest to 4 highest), the “Affinity Score” value [48] was 0 affinity score (0 lowest to 4 highest) and the Affinity Score (affinity score (0 lowest to 4 highest)) [49] was 4. It also gave a Reading [50] of 0, a Reading [51] of 0 and a Reading [52] of 0. The Reading [53] was 0.
